The test has as its target mutant E-cadherin-GFP (Y753, 754, 859, and 876 mutated into F) (human) (UniProt P12830). As to the kind of experiment: co-IP; lysates of HEK293T cells transiently transfected with WT or mutant E-Cdh-GFP; IP with anti-GFP antibody; Western blot for α- and β-Ctn, densitometry relative to the WT band set to 1.
Sequence of UniProt P12830 (P12830 other isoform, or with tags, fused parts or gaps mutant): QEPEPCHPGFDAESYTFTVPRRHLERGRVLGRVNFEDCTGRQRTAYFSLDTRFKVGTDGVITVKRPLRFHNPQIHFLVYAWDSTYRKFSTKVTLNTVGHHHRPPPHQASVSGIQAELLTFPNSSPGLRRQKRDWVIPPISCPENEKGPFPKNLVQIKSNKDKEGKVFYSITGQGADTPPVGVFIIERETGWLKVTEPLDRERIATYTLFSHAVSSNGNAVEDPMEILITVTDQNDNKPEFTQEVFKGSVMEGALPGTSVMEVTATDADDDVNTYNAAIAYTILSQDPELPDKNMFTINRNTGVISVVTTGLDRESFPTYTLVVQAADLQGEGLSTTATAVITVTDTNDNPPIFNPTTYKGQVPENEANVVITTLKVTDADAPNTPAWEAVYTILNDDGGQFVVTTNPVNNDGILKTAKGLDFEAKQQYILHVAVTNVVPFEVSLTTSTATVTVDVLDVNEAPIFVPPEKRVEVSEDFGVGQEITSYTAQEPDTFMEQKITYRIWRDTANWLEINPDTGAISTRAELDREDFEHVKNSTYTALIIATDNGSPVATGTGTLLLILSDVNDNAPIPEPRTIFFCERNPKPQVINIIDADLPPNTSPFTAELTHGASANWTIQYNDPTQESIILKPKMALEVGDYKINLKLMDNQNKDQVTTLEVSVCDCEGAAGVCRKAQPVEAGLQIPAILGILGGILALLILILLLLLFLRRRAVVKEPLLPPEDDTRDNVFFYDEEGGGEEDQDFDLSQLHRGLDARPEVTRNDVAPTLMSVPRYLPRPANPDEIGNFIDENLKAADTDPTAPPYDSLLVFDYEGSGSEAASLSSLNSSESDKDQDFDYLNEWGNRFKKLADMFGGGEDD

In turn, “β-catenin (from UniProt P35222 1-781) (natural protein)” displayed a reduction of co-immunoprecipitation relative to WT E-Cdh-GFP of 60%.

On to “α-catenin (from UniProt P35221 1-906) (natural protein)”, for which the reduction of co-immunoprecipitation relative to WT E-Cdh-GFP was 60%.

The values above are taken from paper PMC6966528.
